In assay [1] the target is T1, full-length rhesus CD137 (Sino Biologics 90847-K02H), huFc tag (rhesus, UniProt F6W5G6 24-186).
T1 construct: Bought protein; also called rhCD137-Fc; Rhesus CD137-Fc tagged protein; not shown: human Fc tag (huFc) and any linker to it
Kind of assay: BLI (ForteBio Octet RED 384), CD137-Fc on Protein G biosensors, 1:1 model. The method, then:
Binding kinetics of purified monovalent VH molecules were measured on a ForteBio Octet RED 384 instrument. Human and Rhesus CD137-Fc tagged protein was diluted to 5 μg/ml in kinetics buffer (0.05% Tween, 1×PBS) and coupled to Protein G biosensors (ForteBio cat no. 18-5082) via the Fc tag. VH were serially diluted (typically 1:2 dilution series starting with 200 nM, VH at the highest concentration) and binding to the CD137-Fc-coupled Protein G biosensors measured. Binding kinetics were determined from the (blank subtracted) sensor gram trace using 1:1 binding models and ForteBio Octet Data Analysis 9.0 software. Example kinetic and binding affinity data obtained is shown Table 18 (monovalent VH).
On the technique in general: In BLI a coated tip is dipped into the sample, and binding shifts an interference pattern.

Assay [2] has as its target T2, human CD137 expressed on cells (Jurkat human CD137 NF-kB luciferase reporter cells; human CD8+ T cells) (human, UniProt Q07011 24-255). Kind of assay: cell-based or functional assay.
Assay [3] concerns the target T2, human CD137 expressed on cells (Jurkat …). Kind of assay: cell-based or functional assay. The source holds these as a separate data set.
Assay [4] concerns the target T3, recombinant Fc-tagged ectodomain of human CD137 (Acro Biosystems 41B-H5258) (human, UniProt Q07011 24-186).
T3 construct: Bought protein; not shown: Fc tag
Kind of assay: SPR, Biacore 8K, single-cycle kinetics; Fc-tagged ectodomain captured on Protein G chip; 1:1 model. An outline of the steps: (§1)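 Single-cycle kinetics: Humabody VH constructs injected 90 s at low to high nanomolar concentrations over captured Fc-tagged ectodomains. Surface regenerated with 10 mM glycine pH 1.5. Kinetics fitted to a 1:1 binding model, including two-PD-1-arm constructs.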
(In SPR one partner is held on a chip, and binding of the other changes the refractive index at the surface.)

The target in assay [5] is T4, recombinant Fc-tagged ectodomain of cynomolgus PD1 (Acro Biosystems PD1-C5254) (cynomolgus macaque, UniProt B0LAJ3 25-170).
T4 construct: Bought protein; also called Cyno PD1; cynomolgus macaque PD1; not shown: Fc tag and any linker to it
The description is as above. In short, it runs like this: as §1

Assay [6] has as its target T5, recombinant Fc-tagged ectodomain of human PD1 (Acro Biosystems PD1-H5257) (human, UniProt Q15116 25-170).
T5 construct: Bought protein; not shown: Fc tag
The description is as above. An outline of the steps: as §1

Assay [7] deals with T6, recombinant Fc-tagged ectodomain of cynomolgus CD137 (R&D S9324-4b) (cynomolgus macaque, UniProt A9YYE7 24-186).
T6 construct: Bought protein; also called Cyno CD137; cynomolgus macaque CD137; not shown: Fc tag and any linker to it
Described as above. An outline of the steps: as §1

Substitutions are numbered along the chain they refer to.

B1: 003BB172-E01-5 (VHH)
VH: EVQLVESGGGLVQPGGSLRLSCAASGFTFSNYGMHWVRQAPGKRLEWVAVISNDGNTKTYADSVKGRFTISRDNSKNTLYLQMNSLRTEDTAVYYCAQDETTTVTASYYFDYWGQGTLVTVSS
notes: Human VH single domain antibody, His-tagged in the assays; not shown: C-terminal 6xHIS tag
What is called Kd is the concentration at which binding is half-saturated. In assay [1], B1 displayed a Kd of 11.5 nM.

B2: 003BB172-E01-8 (VHH)
VHH: B1 VH with L11V, R44G
notes: as for B1
B2: the dissociation constant (Kd) in assay [1] was determined as 41.4 nM.

B3: TPP-1293 (PDBlocker1.92-6GS-CD137A-6GS-HSA2) (bispecific antibody)
chain: EVQLVESGGGLVKPGGSLRLSCAASGFTFSDESMTWMRQAPGKGLEWVSYISSGGGVKFYADSVKGRFTISRDNAKNSLYLQMNSLRAEDTAVYYCAREAPLRLGESPHDAFDISGQGTMVTVSSGGGGSGGGGSGGGGSGGGGSGGGGSGGGGSEVQLVESGGGLVQPGGSLRLSCAASGFTLSNYWMNWVRQAPGKGLEWVANINQDGSERYYVDSVKGRFTISRDNAKNSLYLQMNSLRAEDTAVYYCARGGEGYGVDHYGLDVSGQGTTVTVSSGGGGSGGGGSGGGGSGGGGSGGGGSGGGGSEVQLVESGGGLVKPGGSLRLSCAASGFTFSNYNMNWVRQAPGKGLEWVSSISSAGTHIYYADSVKGRFTISRDNAKNSLYLQMNSLRAEDTAVYYCARDPHSTGWYKDFDYWGQGTLVTVSS
notes: The chain is therefore built from the parts named in the composition
Broadly, the koff is the rate constant with which the complex falls apart. Usually kon stands for the rate constant with which the complex forms. For B3, in assay [2], the “CD8+ T-cell activation assay - IL-2 release, EC50” value came to 146 pM. Besides, in assay [3], the “Jurkat-CD137/CHO-PD-1 Reporter Assay EC50” value came out at 11.3 pM. Further, the dissociation constant Kd in assay [4] was determined as 2.57 nM; in assay [5], 3.41 nM; in assay [6] it was 2.31 nM; in assay [7], 4.34 nM. For the same molecule, the koff in assay [4] turned out to be 0.000151 s⁻¹; in assay [5], 0.000407 s⁻¹; in assay [6] it was 0.000212 s⁻¹; in assay [7], 0.000226 s⁻¹. Besides, the kon was 58600 M⁻¹ s⁻¹ in assay [4], 119000 M⁻¹ s⁻¹ in assay [5], 91500 M⁻¹ s⁻¹ in assay [6] and 52200 M⁻¹ s⁻¹ in assay [7].

Source of the values: patent publication US20220220215A1 (CRESCENDO BIOLOGICS, published 2022).
